{
  "source": "patent US12098206B2",
  "about": "“PDGF receptor antibody and use thereof” (Seoul National University R&DB Foundation, priority 2018, dated 2024)",
  "key": {"NIH3T3 cells": {"system": "NIH3T3 cells", "assay": "cells", "assay_type": "cell-based, mouse", "description": "NIH3T3 cells were added to 50 μL of DMEM supplemented with 10% FBS and 1% penicillin/streptomycin, placed in a 96-well plate (CLS3595, Corning) and incubated overnight in 5% CO2 at 37° C. incubator. In each well containing 50 μL of cells, 50 μL of 50 anti-PDGFR-β x cotinine scFv-Cκ-scFv fusion protein (25.6 pM-2 μM) complexed with cot-duo or cot-duo-cot obtained in Experimental Example 10 was added and incubated for 72 hours in 5% CO2 at 37° C. incubator. To test mPDGF-BB on the toxic effect of the bispecific antibody of scFv-Cκ-scFv and the cotinine-duocarmycin complex, mPDGF-BB (2 nM) was added together with 50 μL of the bispecific antibody scFv-Cκ-scFv and the cotinine-duocarmycin complex. The mixed complexes were added to 50 μL of NIH3T3 cells.\nThe bispecific antibody of anti-HER2 x cotinine scFv-Cκ-scFv was used as a control. After 72 hours of incubation in the cells, 100 μL of Cell Titer-Glo reagents (Promega Corp., Madison, WI, USA) were added to all wells according to the manufacturer's instructions, and luminescence was measured in a luminometer (PerkinElmer, Waltham, MA, USA). The experiment was repeated 3 times. Relative viability was calculated with the following formula: [% viability=(luminescence of experimental well-luminescence of background well)/(luminescence of control-luminescence of background well)×100]. The wells containing only new medium were used as background wells.\nTo evaluate the toxicity of the complex of anti-mPDGFR-B x cotinine scFv-Cκ-scFv bispecific antibodies and cotinine duocarmycin (cot-duo, cot-duo-cot), the complexes were added to NIH3T3 cells in the presence/absence of mPDGF-BB. The ATP of the cells was measured for relative cell viability. The toxicity of the bispecific antibody of scFv-Cκ-scFv fusion antibody was shown by IC50 in Table 6 and FIG. 5.\nIt was carried out in the same manner as in Example 7, except that the bispecific antibody related with the anti-mPDGFR-β antibody and the bispecific antibody related with the anti-hPDGFR-β antibody prepared in Example 10 were used. FIG. 20a to FIG. 20b are graphs showing the difference in cytotoxic activity of PRb-CN01 and PRb-CN32 bispecific antibodies and cotinine-duocarmycin complexes in the cells expressing PDGFR-β. In FIG. 20b, an experiment was repeated in the presence of mPDGF-BB."}, "[1]": {"target": "T1, NIH3T3 cells expressing mPDGFR-β (Mus musculus, UniProt P05622)", "T1 construct": "host or cells: NIH3T3", "T1 sequence (P05622 32-1098)": "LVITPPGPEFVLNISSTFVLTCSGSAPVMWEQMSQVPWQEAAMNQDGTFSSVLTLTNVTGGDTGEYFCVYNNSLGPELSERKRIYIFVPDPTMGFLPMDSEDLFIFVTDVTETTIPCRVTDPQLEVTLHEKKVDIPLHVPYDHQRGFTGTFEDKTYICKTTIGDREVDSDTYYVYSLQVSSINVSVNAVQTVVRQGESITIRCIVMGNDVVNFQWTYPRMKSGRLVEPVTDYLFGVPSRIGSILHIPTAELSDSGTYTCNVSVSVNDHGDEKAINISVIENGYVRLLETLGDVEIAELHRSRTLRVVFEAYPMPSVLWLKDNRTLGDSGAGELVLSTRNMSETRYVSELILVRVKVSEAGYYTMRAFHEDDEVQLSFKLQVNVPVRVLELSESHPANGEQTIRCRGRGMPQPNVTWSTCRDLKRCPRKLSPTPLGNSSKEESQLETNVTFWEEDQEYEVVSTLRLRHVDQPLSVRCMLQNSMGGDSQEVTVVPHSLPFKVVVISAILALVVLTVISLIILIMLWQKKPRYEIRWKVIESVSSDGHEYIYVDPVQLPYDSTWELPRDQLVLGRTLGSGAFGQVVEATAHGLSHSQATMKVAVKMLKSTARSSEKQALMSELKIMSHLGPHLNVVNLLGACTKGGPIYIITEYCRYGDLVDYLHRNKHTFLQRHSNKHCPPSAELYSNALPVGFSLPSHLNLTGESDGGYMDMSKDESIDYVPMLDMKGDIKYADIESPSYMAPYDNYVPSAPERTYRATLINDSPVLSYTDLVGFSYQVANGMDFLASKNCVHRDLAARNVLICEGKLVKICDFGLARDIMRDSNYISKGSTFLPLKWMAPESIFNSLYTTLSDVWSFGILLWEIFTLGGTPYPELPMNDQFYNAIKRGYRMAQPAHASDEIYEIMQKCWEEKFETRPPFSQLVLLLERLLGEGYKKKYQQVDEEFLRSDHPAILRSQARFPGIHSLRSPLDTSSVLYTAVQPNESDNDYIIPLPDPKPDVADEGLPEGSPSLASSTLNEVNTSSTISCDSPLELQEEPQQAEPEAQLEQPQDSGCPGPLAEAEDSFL", "assay": "Flow cytometry binding to NIH3T3 cells expressing mPDGFR-β", "conditions": "for binding to NIH3T3 cells: 100 nM, FIG. 18", "description": "mPDGF-BB was biotinylated using a biotin-xx microscale protein labeling kit (Invitrogen) according to the manufacturer's instructions. NIH3T3 cells were cultured at 4° C. for 1 hour using the bispecific antibody of scFv-Cκ-scFv fusion protein (100 nM) under two different conditions with or without mPDGF-BB-biotin (100 nM). The cells were washed 4 times with flow cytometry buffer and cultured with allophycocyanin (APC)-anti-human Cκ antibody (clone TB28-2; BD Biosciences, San Jose, CA, USA) and streptavidin-phycoerythrin (PE) (12-4317-87; eBioscience, ThermoFisher). After washing, it was classified and analyzed with a FACS Canto II instrument (BD Biosciences, San Jose, CA, USA). 10,000 cells were used for each measurement, and the results were analyzed by FlowJo (Tree Star, Ashland, OR, USA). […] The binding ability of the other three clones was inhibited by mPDGF-BB.\nSpecifically, the bispecific antibody scFv-Cκ-scFv fusion protein (100 nM) in flow cytometry buffer was cultured on NIH3T3 cells expressing mPDGFR-β. The cells were treated with APC-anti human Cκ antibody. The bispecific antibody anti-HER2 x cotinine scFv-Cκ-scFv fusion protein was used as a negative control."}, "neovascularization": {"system": "neovascularization", "assay": "Oxygen-induced retinal disease animal model", "assay_type": "in vivo, C57BL/6 mice", "conditions": "complex with cot-duo; 1 uL into the vitreous cavity, 1 nM and 10 nM; FIG. 9", "description": "C57BL/6 mice on 7th day after birth were reared in a high-concentration oxygen (75%) chamber for 5 days, and transferred to a normal oxygen breeding facility on 12th day to create an environment for retinopathy of premature baby.\nOn the 14th day after birth, 1 uL of each bispecific antibody scFv-Cκ-scFv, and the complex of the bispecific antibody scFv-Cκ-scFv fusion protein and cot-duo were injected into the vitreous cavity at a concentration of 1 nM and 10 nM, respectively. To label blood vessels, isolectin B4-594 (1:100; 121413, Invitrogen) was treated on the retinal flat mount."}, "mPDGFR-β": {"target": "T2, mPDGFR-β (Mus musculus, UniProt P05622)", "T2 construct": "mPDGFR-β", "T2 sequence (P05622 32-530)": "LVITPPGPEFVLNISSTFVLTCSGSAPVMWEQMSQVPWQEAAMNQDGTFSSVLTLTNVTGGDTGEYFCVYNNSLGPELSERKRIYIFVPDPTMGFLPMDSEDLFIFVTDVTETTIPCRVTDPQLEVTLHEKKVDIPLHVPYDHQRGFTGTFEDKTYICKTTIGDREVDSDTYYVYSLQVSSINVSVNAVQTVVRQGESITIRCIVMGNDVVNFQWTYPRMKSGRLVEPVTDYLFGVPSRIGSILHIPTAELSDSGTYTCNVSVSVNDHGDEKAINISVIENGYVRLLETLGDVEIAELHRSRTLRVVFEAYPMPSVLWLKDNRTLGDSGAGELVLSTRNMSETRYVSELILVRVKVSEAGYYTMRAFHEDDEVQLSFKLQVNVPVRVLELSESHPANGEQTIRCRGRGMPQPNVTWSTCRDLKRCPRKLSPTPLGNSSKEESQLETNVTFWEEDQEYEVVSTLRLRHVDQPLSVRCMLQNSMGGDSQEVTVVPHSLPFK", "assay": "Competition enzyme immunoassay with mPDGF-BB", "assay_type": "binding", "conditions": "mPDGF-BB 100 nM; FIG. 4a", "description": "In order to confirm the competition between the bispecific antibody according to the present invention and mPDGF-BB, the microtiter plate was coated with mPDGFR-β-Fc chimera as mentioned above and then blocked. The microtiter plate was treated with various concentrations of the bispecific antibody (0.06 nM-1 μM) with or without addition of mPDGF-BB (100 nM), and then incubated at 37° C. for 2 hours. The washing, incubation, and detection were performed in the same manner as the enzyme immunoassay described above.\nA competition enzyme immunoassay was developed to examine the effect of mPDGF-BB on the binding ability of anti-mPDGFR-β x cotinine scFv-Cκ-scFv fusion protein. The serially diluted bispecific antibodies (anti-mPDGFR-β scFv-Cκ-cotinine scFv) were incubated on wells coated with mPDGFR-β-Fc chimeric fusion protein with or without mPDGF-BB. HRP-anti-human Cκ antibody was incubated and then TMB was added. […] However, the binding ability of PRb-CN01 was not inhibited, so it confirmed that PRb-CN01 binds to mPDGFR-β in a noncompetitive manner to mPDGF-BB."}},
  "data": [
    {"molecule": "PRb-CN32: anti-hPDGFR-β scFv clone (VH SEQ ID NO 47, VL SEQ ID NO 48), tested as scFv-Cκ-anti-cotinine scFv bispecific antibody (antibody, V domains shown, VH of PRb-CN32; VL of PRb-CN32) VH: AVTLDESGGGLQTPRGTLSLVCKASGFTFSSFNMFWVRQAPGKGLEFVAGISTTGRYTGYGSAVQGRGTISRDNGQSTVRLQLNNLRAEDTGTYYCAKSAGSTYSYWDSDAGLIDAWGHGTEVIVSSTS VL: LTQPSSVSANLGETVKITCSGGSNAGSYYYGWYQQKSPGSAPVTVIYSNNQRPSDIPSRFSGSTSGSTSTLTITGVQVDDEAVYFCGSGDSSSIAAFGAGTTLTVL", "values": [
      {"measurement": "cytotoxicity of complex with cotinine-duocarmycin, PRb-CN01 versus PRb-CN32", "setting": "NIH3T3 cells", "value": "equivalent cytotoxicity regardless of the presence/absence of mPDGF-BB"},
      {"measurement": "binding to NIH3T3 cells", "setting": "[1]", "value": "bound to NIH3T3 cells"}
    ]},
    {"molecule": "PRb-CN01: anti-mPDGFR-β chicken scFv clone (VH SEQ ID NO 7, VL SEQ ID NO 8), tested as scFv-Cκ-anti-cotinine scFv bispecific antibody (antibody, V domains shown, VH of PRb-CN01; VL of PRb-CN01) VH: AVTLDESGGGLQTPGGALSLVCKASGFTFSDRAMHWVRQAPGKGLEWVGLITNTGGSTNYGAAVKGRATISRDNGQSTVRLQLNNLRAEDTGTYYCTRGVGSWAHGGRIDAWGHGTEVIVSS VL: LTQPSSVSANPGETVKITCSGGSGSYGWFQQKSPGSAPVTVIYSNNQRPSDIPSRFSGSKSGSTNTLTITGVQAEDEAIYYCGTRDSSYVGIFGAGTTLTVL", "values": [
      {"measurement": "cytotoxicity of complex with cotinine-duocarmycin, PRb-CN01 versus PRb-CN32", "setting": "NIH3T3 cells", "value": "equivalent cytotoxicity regardless of the presence/absence of mPDGF-BB"},
      {"measurement": "toxicity with the addition of mPDGF-BB", "setting": "NIH3T3 cells; complex with cot-duo or cot-duo-cot, NIH3T3, FIG. 5", "value": "also high with the addition of mPDGF-BB"},
      {"measurement": "toxicity compared to control anti-HER2 x cotinine scFv-Cκ-scFv", "setting": "NIH3T3 cells; complex with cotinine-duocarmycin, NIH3T3, with or without mPDGF-BB, FIG. 5", "value": "highest toxicity"},
      {"measurement": "toxicity compared to free duocarmycin", "setting": "NIH3T3 cells; cotinine-duocarmycin complexed with antibody, in the presence of mPDGF-BB, p<0.01", "value": "significantly more toxic than free duocarmycin"},
      {"measurement": "inhibition of neovascularization", "setting": "neovascularization", "value": "inhibited neovascularization in a concentration-dependent manner"},
      {"measurement": "binding ability to mPDGFR-β in the presence of mPDGF-BB", "setting": "mPDGFR-β", "value": "not inhibited"},
      {"measurement": "cell binding in the presence of mPDGF-BB-biotin", "setting": "[1]; 100 nM antibody, mPDGF-BB-biotin 100 nM, FIG. 4b", "value": "bound to PDGFR-β present on the cell surface"},
      {"measurement": "binding to NIH3T3 cells", "setting": "[1]", "value": "bound to NIH3T3 cells"}
    ]}
  ]
}
